Measured values as given in publication PMC5034309, “Real-time visualization of conformational changes within single MloK1 cyclic nucleotide-modulated channels” (Nature Communications, 2016).

Molecular target: the molecule itself
Assay: high-speed atomic force microscopy (HS-AFM); MloK1 2D crystals in lipid membrane adsorbed on mica; imaging buffer 10 mM Tris pH 7.4, 150 mM KCl, 100 uM cAMP; oscillating mode

B1: MloK1 cyclic nucleotide-modulated channel from Mesorhizobium loti (natural protein, UniProt Q98GN8 1-355, looked up)
chain: MSVLPFLRIYAPLNAVLAAPGLLAVAALTIPDMSGRSRLALAALLAVIWGAYLLQLAATLLKRRAGVVRDRTPKIAIDVLAVLVPLAAFLLDGSPDWSLYCAVWLLKPLRDSTFFPVLGRVLANEARNLIGVTTLFGVVLFAVALAAYVIERDIQPEKFGSIPQAMWWAVVTLSTTGYGDTIPQSFAGRVLAGAVMMSGIGIFGLWAGILATGFYQEVRRGDFVRNWQLVAAVPLFQKLGPAVLVEIVRALRARTVPAGAVICRIGEPGDRMFFVVEGSVSVATPNPVELGPGAFFGEMALISGEPRSATVSAATTVSLLSLHSADFQMLCSSSPEIAEIFRKTALERRGAAASA
notes: MloK1, cyclic nucleotide-modulated potassium channel of Mesorhizobium loti, full-length, wild type; The C-terminal hexahistidine tag was cleaved with thrombin after 2D crystallisation and before HS-AFM; Residues of the thrombin site may remain; also called wild-type MloK1; not shown: His6, C-terminal, cleaved
- stoichiometry N: 4
